From PMC3902925, “The double PHD finger domain of MOZ/MYST3 induces α-helical structure of the histone H3 tail to facilitate acetylation and methylation sampling and modification” (Nucleic Acids Research, 2013) come the findings set out here.

This experiment has as its target histone H3 of calf thymus core histones (bovine (calf thymus), UniProt P68432 1-136). Nature of the experiment: cell-based or functional assay.

Where only a bound is given, the exact number is not on record here.

B1: GST-MOZ DPF-MYST (194–810) (enzyme)
chain: LPHEKDKPVAEPIPICSFCLGTKEQNREKKPEELISCADCGNSGHPSCLKFSPELTVRVKALRWQCIECKTCSSCRDQGKNADNMLFCDSCDRGFHMECCDPPLTRMPKGMWICQICRPRKKGRKLLQKKAAQIKRRYTNPIGRPKNRLKKQNTVSKGPFSKVRTGPGRGRKRKITLSSQSASSSSEEGYLERIDGLDFCRDSNVSLKFNKKTKGLIDGLTKFFTPSPDGRKARGEVVDYSEQYRIRKRGNRKSSTSDWPTDNQDGWDGKQENEERLFGSQEIMTEKDMELFRDIQEQALQKVGVTGPPDPQVRCPSVIEFGKYEIHTWYSSPYPQEYSRLPKLYLCEFCLKYMKSRTILQQHMKKCGWFHPPANEIYRKNNISVFEVDGNVSTIYCQNLCLLAKLFLDHKTLYYDVEPFLFYVLTQNDVKGCHLVGYFSKEKHCQQKYNVSCIMILPQYQRKGYGRFLIDFSYLLSKREGQAGSPEKPLSDLGRLSYMAYWKSVILECLYHQNDKQISIKKLSKLTGICPQDITSTLHHLRMLDFRSDQFVIIRREKLIQDHMAKLQLNLRPVDVDPECLRWTPVIVSNSVVSEEEEEEAEEGENEEPQCQERELE
Regarding B1, the “initial rate of acetylation of core histones in time course HAT assays, DPF-MYST (194–810) against the MYST domain (510–810) alone” value was at least 8 fold.
